Results on 2 substances are retold here after IntAct's records for PubMed 8670882.

Experiment [1] deals with T1, ste20_yeast STE20 (UniProt Q03497).
T1 sequence: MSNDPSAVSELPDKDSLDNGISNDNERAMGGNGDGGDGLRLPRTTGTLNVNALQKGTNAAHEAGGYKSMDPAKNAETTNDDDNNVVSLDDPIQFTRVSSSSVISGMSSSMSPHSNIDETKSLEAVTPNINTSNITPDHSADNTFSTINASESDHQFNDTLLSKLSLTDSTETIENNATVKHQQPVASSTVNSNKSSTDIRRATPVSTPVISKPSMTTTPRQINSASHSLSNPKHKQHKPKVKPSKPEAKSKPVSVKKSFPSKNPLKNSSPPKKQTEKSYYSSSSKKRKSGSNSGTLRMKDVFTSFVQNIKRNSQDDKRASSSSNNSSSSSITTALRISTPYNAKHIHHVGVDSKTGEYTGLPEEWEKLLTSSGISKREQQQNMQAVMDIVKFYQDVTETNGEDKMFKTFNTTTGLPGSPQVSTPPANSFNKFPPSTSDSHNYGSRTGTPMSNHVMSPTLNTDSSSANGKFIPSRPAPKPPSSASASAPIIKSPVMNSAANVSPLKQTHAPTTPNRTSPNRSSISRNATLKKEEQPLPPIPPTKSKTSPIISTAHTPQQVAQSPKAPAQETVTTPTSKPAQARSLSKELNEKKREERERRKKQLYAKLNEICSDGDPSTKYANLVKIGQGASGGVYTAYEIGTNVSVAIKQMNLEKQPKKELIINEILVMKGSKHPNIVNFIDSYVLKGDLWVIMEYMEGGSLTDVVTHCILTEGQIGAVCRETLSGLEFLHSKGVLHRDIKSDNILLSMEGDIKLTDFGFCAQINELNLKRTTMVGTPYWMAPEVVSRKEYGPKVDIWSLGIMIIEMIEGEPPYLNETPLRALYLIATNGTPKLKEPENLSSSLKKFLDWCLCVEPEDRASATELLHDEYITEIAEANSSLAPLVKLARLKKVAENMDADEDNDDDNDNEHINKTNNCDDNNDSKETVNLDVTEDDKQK

The target of experiment [2] is T2, arfp2_human ARFIP2 (UniProt P53365).
T2 sequence: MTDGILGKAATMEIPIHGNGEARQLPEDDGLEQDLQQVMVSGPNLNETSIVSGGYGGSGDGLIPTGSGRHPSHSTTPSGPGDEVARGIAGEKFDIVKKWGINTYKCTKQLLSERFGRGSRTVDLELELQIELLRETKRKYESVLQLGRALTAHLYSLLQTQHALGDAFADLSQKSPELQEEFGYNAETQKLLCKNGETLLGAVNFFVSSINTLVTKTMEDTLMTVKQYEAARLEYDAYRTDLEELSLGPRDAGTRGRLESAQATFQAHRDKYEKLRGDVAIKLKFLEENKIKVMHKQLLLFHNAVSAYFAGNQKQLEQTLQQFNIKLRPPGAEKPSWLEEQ

“Ras-related C3 botulinum toxin substrate 1 (Homo sapiens) (from UniProt P63000) G12V”: the “effect of a mutation on the interaction” value in experiment [1] is “increasing interaction”.

Consider “Ras-related C3 botulinum toxin substrate 1 (Homo sapiens) (from UniProt P63000) T35A”, for which the “effect of a mutation on the interaction” value in experiment [2] is “decreasing interaction”.
